The experiment concerns the target SARS-CoV-2 S-ECD-hFc (extracellular domain of the spike (S) protein, hFc-tagged) (SARS-CoV-2, UniProt P0DTC2 14-1213). As to the kind of experiment: flow cytometry on cells. (Flow cytometry measures light scatter and fluorescence of single cells or particles in a stream.)

B1: KREMEN1 (receptor)
chain: ARPAPSPGLGPECFTANGADYRGTQNWTALQGGKPCLFWNETFQHPYNTLKYPNGEGGLGEHNYCRNPDGDVSPWCYVAEHEDGVYWKYCEIPACQMPGNLGCYKDHGNPPPLTGTSKTSNKLTIQTCISFCRSQRFKFAGMESGYACFCGNNPDYWKYGEAASTECNSVCFGDHTQPCGGDGRIILFDTLVGACGGNYSAMSSVVYSPDFPDTYATGRVCYWTIRVPGASHIHFSFPLFDIRDSADMVELLDGYTHRVLARFHGRSRPPLSFNVSLDFVILYFFSDRINQAQGFAVLYQAVKEELPQERPAVNQTVAEVITEQANLSVSAARSSKVLYVITTSPSHPPQTVPGSNSWAPPMGAGSHRVEGWTVYGLATLLILTVTAIVAKILLHVTFKSHRVPASGDLRDCHQPGTSGEIWSIFYKPSTSISIFKKKLKGQSQQDDRNPLVSD
Turning to B1, the Kd is 19.3 nM.

B2: ASGR1 (receptor)
chain: MTKEYQDLQHLDNEESDHHQLRKGPPPPQPLLQRLCSGPRLLLLSLGLSLLLLVVVCVIGSQNSQLQEELRGLRETFSNFTASTEAQVKGLSTQGGNVGRKMKSLESQLEKQQKDLSEDHSSLLLHVKQFVSDLRSLSCQMAALQGNGSERTCCPVNWVEHERSCYWFSRSGKAWADADNYCRLEDAHLVVVTSWEEQKFVQHHIGPVNTWMGLHDQNGPWKWVDGTDYETGFKNWRPEQPDDWYGHGLGGGEDCAHFTDDGRWNDDVCQRPYRWVCETELDKASQEPPLL
Molecule B2 showed a Kd of 94.8 nM.

Usually Kd stands for the free concentration of one partner at which half of the binding sites on the other are occupied at equilibrium, for simple one-to-one binding. A high value points to weaker binding.
